Substrate: CC(=O)N[C@H](C(=O)N[C@@H](CC(=O)O)C(=O)N[C@H](C(=O)N[C@@H](C)C(=O)N[C@@H](CC(=O)O)C(=O)Nc1ccc([N+](=O)[O-])cc1)C(C)C)C(C)C
Test: In vitro proteolysis assay with chromogenic para-nitroaniline-labeled peptide substrate (absorbance 405 nm)
Format: biochemical, Human
Conditions: other: pNA substrate cleaved by N-His Ich-1, 30° C.
Text: To identify peptide substrates for Ich-1, candidate peptides were used in in vitro proteolysis assays with recombinant Ich-1 protein. Human Ich-1 enzyme (the nucleotide and amino acid sequences for which are disclosed in Wang, L., et al. (1994) Cell 78:739-750) was expressed recombinantly with an N-terminal polyhistidine tag by methods described in Kamens, J., et al. (1995) J. Biol. Chem. 270:15250-15256. The resulting enzyme, called N-His Ich-1, contains Ich-1 amino acid residues 167-435, with an initiator and polyhistidine tag fused to the amino terminus. […]
A peptidic aldehyde inhibitor of Ich-1 was designed based upon the optimal peptide substrate (Peptide 43) described in Example 3. […] The ability of this peptidic aldehyde inhibitor to inhibit N-His Ich-1 activity was determined in in vitro proteolysis assays using a chromogenic para-nitroaniline-labeled peptide substrate. […]
To perform the proteolysis assay, N-His Ich-1 was preincubated for 30 minutes at 30° C. in 160 μl of a reaction buffer containing 100 mM sodium acetate (pH 6.2), 20% (v/v) glycerol, 5 mM DTT, 0.5 mM EDTA, […]. […] The incubation of N-His Ich-1 with the peptide substrate at 30° C. was continued, and the catalytic hydrolysis of peptide substrate was monitored by the change in absorbance of the samples at 405 nm due to release of pNA as a function of time. […]

B1: N-His Ich-1 (Homo sapiens) (protein)
chain 1: YQTHFQLAYRLQSRPRGLALVLSNVHFTGEKELEFRSGGDVDHSTLVTLFKLLGYDVHVLCDQTAQEMQEKLQNFAQLPAHRVTDSCIVALLSHGVEGAIYGVDGKLLQLQEVFQLFDNANCPSLQNKPKMFFIQACRGDETDRGVDQQD
chain 2: GKNHAGSPGCEESDAGKEKLPKMRLPTRSDMICGYACLKGTAAMRNTKRGSWYIEALAQVFSERACDMHVADMLVKVNALIKDREGYAPGTEFHRCKEMSEYCSTLCRHLYLFPGHPPT
notes: contains Ich-1 amino acid residues 167-435, with an initiator and polyhistidine tag fused to the amino terminus; initiator (Met) + polyhistidine tag (N); made in house
B1 was tested. Which Km did it give?
The Km was 42 µM.

Source: patent US6288037A, “Substrates and inhibitors for cysteine protease ICH-1” (BASF Aktiengesellschaft, priority 1996, dated 2001)
